Assay results: patent US20230257435A1, “Wound Healing Composition and Uses Thereof” (AGENCY FOR SCIENCE, TECHNOLOGY AND RESEARCH, priority 2020, published 2023)

Legend:
HaCaT cells = assay: Collective migration on soft/stiff substrates (stencil barrier); type: cell-based, human
Method: (§1) Tissue culture plates were coated with Col-T-gel (Fischer Scientific) of stiffness ranging from 0.8 KPa (soft) to 30 KPa (stiff) as per manufacturer recommendations and allowed to solidify for 40 min at 37° C. inside tissue culture incubators. Some experiments were performed with cells seeded on the poly-hydrogel plates of defined stiffness: 0.2 kPa and 16 kPa soft and hard polyhydrogels, respectively (CytoSoft, Advanced Biomatrix, Inc.,). The determination of stiffness of silicone substrates were done by the manufacturer as per previously published protocols. For certain experiments, indicated amounts of sAgrin was incorporated into the 0.8 KPa collagen gels before gelation process. Upon gelation, trypsinized cells or excised mouse skin explants were plated onto the gels of different stiffness either alone or containing sAgrin. The cells/tissues were incubated under standard culture condition with 500 μl recommended culture medium for the indicated days. The crossbow shaped micropatterns with fibronectin coated islands were generated by microlithography on a 19.5×19.5 mm coverslide from Cytoo, Inc., France. The micropatterns had surface areas of 800μ^2 or 1600μ^2, respectively. Fifty thousand cells after initial siRNA treatment was placed on the micropatterns for 4-6 h before processing them for immunofluorescence. For some experiments, 10 μg/ml sAgrin was added on the slides 18 h prior to the addition of cells.
A confluent monolayer of control and Agrin depleted cells in a 6-well plate was subjected to a unidirectional scratch using a 20 μl pipette tip. This was followed by washing with 1×PBS at room temperature and incubation in complete culture media at 37° C. and 5% CO2 with or without sAgrin used as indicated. Phase contrast images of the wound area were taken periodically at the indicated time-points. For some wound-healing migration assays, keratinocytes were cultured on either soft or stiff substrates within a stencil barrier (Nalge Nunc., Inc) for 18 h. Upon removal of the barrier, the cells were allowed to migrate and imaged using an Axiovert 200 inverted microscope at indicated time-points.

mouse skin punch wounds = assay: Punch-biopsy wound healing model, non-splinted; type: in vivo
Method: Six to eight to week old female experimental ICR (nomenclature: IcrTac:ICR) mice purchased from InVivos were used for punch-biopsy wound healing in vivo assays. In the ex-vivo mouse skin explant assay, random ratios of male and female new born ICR mouse pups were used. Wherever possible, the experiments were performed taking into consideration an ethical and reductionist approach of animal usage. Animal studies were not performed in a blinded fashion. The animals were randomly assigned to different experimental groups. The number of animals used for each experiment is indicated in the legend as n=x mice per group. All animal experiments performed were done in accordance with experimental protocols reviewed by the Biological Resource Center (BRC), Agency for Science Technology and Research (A*STAR) under strict compliance to the Institutional Animal Care and Use Committee (IACUC) guidelines for ethical use of animal models in biological research.
The mice were housed under standard conditions of 21° C. and a 12 h light-dark cycle with free access to food. Subsequently, the mice were intraperitoneally (i.p.) anesthezised using Ketamine 100 mg/kg and Xylazin 10 mg/kg diluted in […] of saline solution. The fur was shaved from the base of the neck towards the back on the entire shoulder region. The skin was wiped with an alcohol swab and 10% povidone-iodine (Betadine) antiseptic solution. Circular symmetrical 4 mm wounds were inflicted on either side of the midline in the shoulder region using a sterile 4 mm punch biopsy needle (Integra Miltex, Integra York, P.A., Inc.). The wound skin was carefully removed using a scalpel and a pair of scissors to generate a full-thickness wound that were left open for topical administrations during the analysed time periods. For splinted wound healing models, a 10 mm transparent donut shaped nylon sheet (Grace Bio-Laboratories, Bend, Oreg.) was placed around the 4 mm wound. The splint was placed with the wound at the center, glued to the skin by adhesive (Krazy Glue®; Elmer's Inc.), and covered by Tegaderm dressing. The wounds were treated with different formulations based on either petroleum jelly (Vaseline), a thermoresponsive hydrogel (Pluronic F127-Sigma) or a commercially available skin ointment (Aquaphore-Beiersdorf, Inc.). For Vaseline based ointment cream preparation, 10 mg per cm^2 vaseline ointment was mixed with filtered PBS solutions containing the indicated amounts of Agrin (100 μg, 200 μg or 500 μg) and 100 μg BSA (w/w) were used and applied topically every two days. For siRNA mediated knockdown experiments, 75 nM of indicated siRNAs were incubated with lipofectamine in PBS. Subsequently, a 1:1 mixture of PBS (containing the siRNAs): Aquaphore was applied topically on the wound region every two days. A topical formulation comprising of 20% (w/w) Pluronic F127 (Sigma) was used to dissolve in sterile and 0.22μ filtered solution containing a final concentration of 200 μg/ml sAgrin or BSA. This mixture was dissolved overnight at 4° C. to ensure that liquid phase is achieved. The mixture forms a homogenous gel at temperatures above ˜20° C. and was dispersed topically to cover the wound. Wound closure was assessed using a Vernier caliper every alternate day. For both models, the animals were caged individually throughout the observed time-points of healing at the institutional animal facility. All wound healing animal experiments performed were done in accordance with experimental protocols reviewed by the Biological Resource Center (BRC), Agency for Science Technology and Research (A*STAR) under strict compliance to the Institutional Animal Care and Use Committee (IACUC) guidelines for ethical use of animal models in biological research.
Human skin equivalents and mice skin tissues were harvested, embedded, and subjected to routine histology using Hematoxylin and Eosin. For immunostaining, the tissues were fixed for 24 h in 10% neutral buffered formalin solution. […]

mouse skin explants = assay: Mouse skin explant assay (keratinocyte outgrowth); type: cell-based
Method: Three days old ICR strain mouse pups were sacrificed and the hind skin on either side of the midline in the shoulder region was washed in 70% ethanol and excised using scalpel. The excised skin was washed in 70% ethanol and placed (dermis side down) on the pre-made gel substrates of defined stiffness, either in the absence or presence of 20 μg/ml sAgrin. The explants were allowed to adhere for 2 h before adding the keratinocyte culture medium (DMEM) containing 300 μM Ca^2+ as described previously^31. The keratinocyte outgrowth and the skin tissues regularly imaged under an Axiovert-200 inverted microscope and were subsequently fixed in 4% paraformaldehyde and immunostained for Keratin 17 antibody.
as §1, with “For some experiments, 10 μg/ml sAgrin was added on the slides 18 h prior to the addition of cells.” left out

B1: sAgrin: C-terminus recombinant Agrin fragment containing 8 amino acid 'Z8' insert and LG3 domain (SEQ ID NO: 7), His-tagged, expressed in E. coli (protein)
chain: DTLAFDGRTFVEYLNAVTESELANEIPVEKALQSNHFELSLRTEATQGLVLWSGKATERADYVALAIVDGHLQLSYNLGSQPVVLRSTVPVNTNRWLRVVAHREQREGSLQVGNEAPVTGSSPLGATQLDTDGALWLGGLPELPVGPALPKAYGTGFVGCLRDVVVGRHPLHLLEDAVTKPELRPCPTP
modifications: His tag
collective migration rates on compliant substrates (HaCaT cells; 0.8 kPa, sAgrin 10 μg/ml, 24 h): significantly promoted migration rates that was comparable to those in stiff ECM alone
K17 expressing leader cells on soft substrates (HaCaT cells; soft substrate, sAgrin 10 μg/ml, 4 h): stimulated collective migration by activating K17 expressing leader cells
fraction of K17 expressing leader cells in Agrin depleted cells (HaCaT cells; stiff ECM with sAgrin, 4 h): significantly restored
migratory potential of Agrin depleted keratinocytes on stiff substrates (HaCaT cells; stiff matrix with 10 μg/ml sAgrin): significantly rescued
K17 expressing migrating cells after MMP12 knockdown (HaCaT cells; stiff substrates (30 kPa), 20 μg/ml sAgrin): not restored by the nourishment of sAgrin
migratory epithelial tongue from wound edges (mouse skin punch wounds; day 2): significant extension of the migratory epithelial tongue
K17 outgrowth, MMP12 expression and pMLC activation (mouse skin punch wounds; day 2, wound edges and beds): robust K17 expressing keratinocyte outgrowth, MMP12 expression and pMLC activation
angiogenesis (blood vessel number and diameter) (mouse skin punch wounds; day 6): steady enhancement in angiogenesis with an increased number of blood vessels and their respective diameters
Ki67+ve proliferating cells (mouse skin punch wounds; day 7 post-injury): enhancement of Ki67+ve proliferating cells
rates of wound healing, Pluronic F-127 hydrogel (mouse skin punch wounds; sAgrin 200 μg vs control hydrogel): significantly boosted the rates of wound healing in vivo
healing rates of punch wounds, Vaseline ointment (mouse skin punch wounds; sAgrin 100, 200 or 500 μg in Vaseline vs BSA): significantly accelerated the healing rates of mice punch wounds in a dose-dependent fashion
keratinocyte outgrowth on soft substrates (mouse skin explants; soft ECM, 20 μg/ml sAgrin, day 5): significantly enhanced keratinocyte outgrowth
keratinocyte outgrowth of Agrin depleted explants on stiff substrates (mouse skin explants; stiff ECM with 20 μg/ml sAgrin): exhibited higher keratinocyte outgrowth
